# Data as given in article PMC6394990, “Detailed characterization of the solution kinetics and thermodynamics of biotin, biocytin and HABA binding to avidin and streptavidin” (PLoS ONE, 2019).
# Several values for one entry are separate records, joined by “and”; a condition that tells them apart may be missing. Identical values can stand only once. Like-named read-outs stand apart in the source and are kept apart here.
# Assays:
# avidin (AV) [1] = target: T1, avidin (AV) (Gallus gallus, UniProt P02701); details: cited from earlier work; for Off rate constants, rate / Off rate constants, ln k: AV; for Off rate constants, rate: in s^-1 (unit assumed); for Off rate constants, ln k: the values are: ln koff
# T1 construct: purchased Calbiochem (La Jolla, CA)
# [2] = design: method as in PMID 10796986; details: cited from earlier work
# avidin (AV) [3] = target: T1, avidin (AV); assay: Stopped-flow association kinetics of dye-labeled biotin probes binding to avidin (F(t), rF(t); Arrhenius plots/global fitting); design: ln(k) / dS+ / dG+ / Eon for BFl / b of the line y = m1x+b1: unit not given here; details: forward step from Initial 0, probe not given
# Protocol: (§1) These reactions were carried out in a buffered solution of 10 mM Tris-HCl, 100 mM KCl, 2.5 mM MgCl2 and 1 mM CaCl2 at pH 8 and only AV-BcO reactions included pH 9 and 10. The concentrations, after mixing, were of 20 nM of dye-labeled B7 probe and 260 nM, 520 nM or 1040 nM of AV; and 200 nM, 300 nM, 400 nM or 800 nM of SAV at temperatures of 10, 15, 20 and 25°C. The deglycosylation of AV (for comparative association reactions) was carried out using the provided standard protocol with endoglycosidase H [47], both with and without incubation of a denaturant solution (2% SDS and 1M 2-mercaptoethanol).
# The reactions were collected with the SF instrument, described previously. The fluorescence signal was collected through a 520 nm interference filter (Oriel Corp., Stratford, CT) with a detector time constant and SF dead time of 1 μs and 1 ms, respectively. The excitation light was provided by the Coherent Ar^+ ion laser (described above) at 488 nm with […] of incident power on the reaction cuvette. The laser source was followed by the photo-elastic modulator described above with the axis oriented 45^o with respect to the electric vector of the incident light and with the half-wave modulation (50 kHz) set for 488 nm excitation. The demodulation circuitry following the photomultiplier provided a DC(t) and a rectified AC(t) which were converted to digital data by a high-speed digitizer (PCI-5122) from National Instruments (Austin, TX) with 14-bit resolution and 100 MHz bandwidth, through channels 0 and 1. The data acquisition was controlled by LabVIEW (Vr 8) software at a collection rate of 6120 data points/second and stored in spreadsheets. The AC(t) and DC(t) data were baseline corrected before obtaining the signal ratio (Eq 4) as a function of time (ρt).
# (§2) The constant AGain is the instrumental amplitude gain and was evaluated by solving ρ(t) using the known steady state anisotropy (rss) of the complexes which is equivalent to the r(t) at t = ∞; and H, obtained from the equivalent grating factor (G) for the filters and photo multiplier tubes in the SF. For the probes used in here G was 0.82 and H = (1-G)/(1+G) = 0.099. Knowing Again and H, the AC(t) and DC(t) signals can be solved for r(t) and F(t) (Eqs 4 and 5) and the normalized fluorescence, F¯(t) , and corrected fluorescence anisotropy, rF¯(t), were obtained when F¯(0) and rF¯(0) were scaled to 1 at t = 0.
# (§3) The F¯(t) (Eq 6) is equivalent to (I||) + 2 (I⊥) and proportional to quantum yield (QYi), molar absorptivity (εi) and to the formation or disappearance of the emitting species Xi(t); and rF¯(t) including the steady state anisotropies (rss) of each fluorescent species (Eq 7).
# (§4) The possible reaction models were discriminated by the squared residuals of the observed and calculated association traces of both fluorescence and anisotropy fluorescence signals, F¯(t) and rF¯(t) , respectively.
# avidin (AV) [4] = target: T1, avidin (AV); details: cited from earlier work
# avidin (AV) [5] = target: T1, avidin (AV); assay: Literature kinetics, affinity and dissociation (backward) activation parameters; format: binding
# avidin (AV) [6] = target: T1, avidin (AV); assay: Literature calorimetry reaction thermodynamics; format: binding; details: line without author below the literature lines (average)
# streptavidin (SAV) [7] = target: T2, streptavidin (SAV) (Streptomyces avidinii, UniProt P22629); details: cited from earlier work; for Off rate constants, rate / Ea from off rate constants: SAV; for Off rate constants, rate: ligand not given, ref klumb paper; for ln(frac bound): rate off SAV
# T2 construct: purchased Sigma Aldrich (St. Louis, MO)
# streptavidin (SAV) [8] = target: T2, streptavidin (SAV); assay: Literature calorimetry reaction thermodynamics; format: binding
# streptavidin (SAV) [9] = target: T2, streptavidin (SAV); assay: Stopped-flow association kinetics of dye-labeled biotin probes binding to streptavidin (F(t), rF(t); Arrhenius plots/global fitting); details: forward step from Initial 0, probe not given
# Protocol: as §1, with “The concentrations, after mixing, were of 20 nM of dye-labeled B7 probe and 260 nM, 520 nM or 1040 nM of AV; and 200 nM, 300 nM, 400 nM or 800 nM of SAV at temperatures of 10, 15, 20 and 25°C.” left out
# The reactions were collected with the SF instrument, described previously. […] The AC(t) and DC(t) data were baseline corrected before obtaining the signal ratio (Eq 4) as a function of time (ρt).
# as §2, §3, §4
# streptavidin (SAV) [10] = target: T2, streptavidin (SAV); assay: Literature kinetics, affinity and dissociation (backward) activation parameters; format: binding
# streptavidin (SAV) [11] = target: T2, streptavidin (SAV); details: cited from earlier work
# [12] = free biotin, 43 C, read from a literature plot
# [13] = free biotin, 55 C, read from a literature plot
# [14] = free biotin, 66 C, read from a literature plot
# [15] = Enthalpy block, from literature off rates, ref not given
# [16] = ligand not given (biotin binding), ref Helppolainen
# [17] = Enthalpy block, literature value, ref not given
# [18] = Gibbs block, literature value, ref not given
# [19] = entropy block, literature value, ref not given
# [20] = ligand not given (biotin binding), first Green line, ref Green
# [21] = ligand not given (biotin binding), ref Suurkuusk
# [22] = ligand not given (biotin binding), second Green line, ref Green
# [23] = line without author below the literature lines
# [24] = ligand not given (biotin binding), ref Hyre
# [25] = ligand not given (biotin binding), ref Klumb
# [26] = ligand not given (biotin binding), ref Weber
# [27] = line without author below the literature lines (average)
# [28] = ligand not given (biotin binding), ref Green
# T2 sequence (P22629 25-183): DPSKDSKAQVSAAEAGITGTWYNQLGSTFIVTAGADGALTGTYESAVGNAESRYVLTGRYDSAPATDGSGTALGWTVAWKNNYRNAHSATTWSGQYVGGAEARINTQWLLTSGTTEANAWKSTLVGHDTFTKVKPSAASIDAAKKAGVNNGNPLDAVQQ
# T1 sequence (P02701 25-152): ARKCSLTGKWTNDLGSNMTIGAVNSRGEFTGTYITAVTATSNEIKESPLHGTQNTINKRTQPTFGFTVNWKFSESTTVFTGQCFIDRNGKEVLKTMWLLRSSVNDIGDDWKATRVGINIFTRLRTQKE
compound,measurement,setting,value
O=C(O)CCCC[C@@H]1SC[C@@H]2NC(=O)N[C@@H]21 [free biotin],"Off rate constants, rate",avidin (AV) [1]; [12],5.623e-6
same,"Off rate constants, ln k",avidin (AV) [1]; [12],-12.1
same,"Off rate constants, rate",avidin (AV) [1]; [13],6.31e-5
same,"Off rate constants, ln k",avidin (AV) [1]; [13],-9.67
same,"Off rate constants, rate",avidin (AV) [1]; [14],0.0005623
same,"Off rate constants, ln k",avidin (AV) [1]; [14],-7.48
"AV: avidin, homo-tetrameric biotin-binding protein, CAS 1405-69-2",thermal stability with bound B7,[2],117 °C and 112 °C
same,thermal stability without bound B7,[2],84 °C
same,"Off rate constants, ln k","avidin (AV) [1]; 43 C, ligand not given, ref rhiziavidin paper",-14.3
same,"Off rate constants, ln k","avidin (AV) [1]; 55 C, ligand not given, ref rhiziavidin paper",-12.2
same,"Off rate constants, ln k","avidin (AV) [1]; 66 C, ligand not given, ref rhiziavidin paper",-10
same,"Off rate constants, ln k","avidin (AV) [1]; 68 C, ligand not given, ref rhiziavidin paper",-10.1
same,Eoff (ave),avidin (AV) [1]; [15],37.6
same,Eaoff,avidin (AV) [1]; [16],35.6
same,dG+,avidin (AV) [3]; Gibbs block,4.7
same,dS+,avidin (AV) [3]; entropy block,32.8
same,dH,avidin (AV) [4]; [17],-23.2
same,dG,avidin (AV) [4]; [18],-20.7
same,dS,avidin (AV) [4]; [19],-8.9
same,TdS,avidin (AV) [4]; [20],0 kcal/mol
same,dG,avidin (AV) [4]; [20],-20.5 kcal/mol
same,dS,avidin (AV) [4]; [20],0
same,TdS,avidin (AV) [4]; [21],-8.9 kcal/mol
same,dCp,avidin (AV) [4]; [21],-237
same,dH,avidin (AV) [4]; [21],-22.5 kcal/mol
same,dH,"avidin (AV) [4]; ligand not given (biotin binding), ref swamy",-23.4 kcal/mol
same,TdS,avidin (AV) [4]; [22],-2.65 kcal/mol
same,dG,avidin (AV) [4]; [22],-20.75 kcal/mol
same,dH,avidin (AV) [4]; [22],-20.3 kcal/mol
same,dS,avidin (AV) [4]; [22],-8.9
same,"dSǂ from off rate constants, from transition state teory",avidin (AV) [5]; AV,31.8 cal/(mol·K)
same,TdS*,"avidin (AV) [5]; AV, at 25C",1.28E+04
same,dG*,"avidin (AV) [5]; AV, at 25C, from off rates of rhiziavidin-helponainen-2007",2.47E+04
same,"dS (intercept less ln[RT/Noh), times 1.987)","avidin (AV) [5]; AV, from off rate constants",43 cal/(mol·K)
same,"slope intersept, ln A","avidin (AV) [5]; AV, from off rate constants of rhiziavidin-helponainen-2007",45.4
same,sum (Enthalpy: Eon for BFl and dH),avidin (AV) [5]; Enthalpy block,37.6
same,sum (Gibbs: dG+ and dG),avidin (AV) [5]; Gibbs block,25.4
same,sum (entropy: dS+ and dS),avidin (AV) [5]; entropy block,41.7
same,Ea from off rate constants,"avidin (AV) [5]; for AV, from off rates of rhiziavidin-helponainen-2007",37.5 kcal/mol
same,Eaoff,avidin (AV) [5]; [23],35.6
same,dH + Ea,avidin (AV) [5]; [23],36.5
same,dH,avidin (AV) [6],-21.9 kcal/mol
"SAV: streptavidin, homo-tetrameric biotin-binding protein, CAS 9013-20-1",thermal stability with bound B7,[2],112 °C and 117 °C
same,thermal stability without bound B7,[2],75 °C
same,Eoff (ave),streptavidin (SAV) [7]; [15],29.4
same,"Off rate constants, rate",streptavidin (SAV) [7]; 20 C,1.862e-6
same,"Off rate constants, rate",streptavidin (SAV) [7]; 30 C,9.12e-6
same,"Off rate constants, rate",streptavidin (SAV) [7]; 39 C,4.467e-5
same,Ea from off rate constants,streptavidin (SAV) [7]; ref hyre,30.4 kcal/mol and 30.4 ± 0.2hyre kcal/mol
same,Ea from off rate constants,streptavidin (SAV) [7]; ref klumb,29.4 kcal/mol and 29.4 ± 0.4klumb kcal/mol
same,Ea from off rate constants,streptavidin (SAV) [7]; ref rhiziavidin-helponainen-2007,29.0 ± 1.0 kcal/mol
same,Eaoff,streptavidin (SAV) [7]; [16],29
same,TdS*,streptavidin (SAV) [7]; [16],7.6 kcal/mol
same,dH*,streptavidin (SAV) [7]; [16],32 kcal/mol
same,dS*,streptavidin (SAV) [7]; [16],0.0257 kcal/mol
same,Eaoff,streptavidin (SAV) [7]; [24],29.4
same,TdS*,streptavidin (SAV) [7]; [24],5.6 kcal/mol
same,dH*,streptavidin (SAV) [7]; [24],30.4 kcal/mol
same,dS*,streptavidin (SAV) [7]; [24],0.0058 kcal/mol
same,Eaoff,streptavidin (SAV) [7]; [25],30.4
same,dG*,streptavidin (SAV) [7]; [25],24.6
same,dH*,streptavidin (SAV) [7]; [26],40 kcal/mol
same,ln(frac bound),"streptavidin (SAV) [7]; time 13 hr, ref klumb",-0.19
same,ln(frac bound),"streptavidin (SAV) [7]; time 22 hr, ref klumb",-0.36
same,ln(frac bound),"streptavidin (SAV) [7]; time 36 hr, ref klumb",-0.47
same,ln(frac bound),"streptavidin (SAV) [7]; time 47 hr, ref klumb",-0.62
same,ln(frac bound),"streptavidin (SAV) [7]; time 63 hr, ref klumb",-0.78
same,TdS,streptavidin (SAV) [8]; [23],-46.0
same,dH,streptavidin (SAV) [8]; [27],-24.8 kcal/mol
same,dG+,streptavidin (SAV) [9]; Gibbs block,4
same,dS+,streptavidin (SAV) [9]; entropy block,6.7
same,sum (Enthalpy: Eon for BFl and dH),streptavidin (SAV) [10]; Enthalpy block,30.8
same,sum (Gibbs: dG+ and dG),streptavidin (SAV) [10]; Gibbs block,22.2
same,"dSǂ from off rate constants, from transition state teory",streptavidin (SAV) [10]; SAV,18.8
same,TdS*,"streptavidin (SAV) [10]; SAV, at 25C",8.94E+03
same,dG*,"streptavidin (SAV) [10]; SAV, at 25C, line names rhiziavidin-helponainen-2007",2.14E+04
same,"slope intersept, ln A","streptavidin (SAV) [10]; SAV, from literature off rate constants",38.85
same,"dS (intercept less ln[RT/Noh), times 1.987)","streptavidin (SAV) [10]; SAV, from off rate constants",30.0
same,sum (entropy: dS+ and dS),streptavidin (SAV) [10]; entropy block,27.7
same,dH + Ea,streptavidin (SAV) [10]; [23],31.8
same,dS*,streptavidin (SAV) [10]; [23],0.0195 kcal/mol
same,Eaoff,streptavidin (SAV) [10]; [27],29.6
same,dH,streptavidin (SAV) [11]; [17],-24.8
same,dG,streptavidin (SAV) [11]; [18],-18.2
same,dS,streptavidin (SAV) [11]; [19],-21
same,TdS,streptavidin (SAV) [11]; [28],-6.4
same,dG,streptavidin (SAV) [11]; [28],-18.1 kcal/mol
same,dH,streptavidin (SAV) [11]; [16],-26.7 kcal/mol
same,TdS,streptavidin (SAV) [11]; [24],-13.7
same,dCp,streptavidin (SAV) [11]; [24],-345
same,dG,streptavidin (SAV) [11]; [24],-18.3 kcal/mol
same,dH,streptavidin (SAV) [11]; [24],-24.5 kcal/mol
same,dS,streptavidin (SAV) [11]; [24],-45.9
same,dH,streptavidin (SAV) [11]; [25],-24.9 kcal/mol
same,TdS,"streptavidin (SAV) [11]; ligand not given (biotin binding), ref Stayton",-21.5
same,dH,streptavidin (SAV) [11]; [26],-32 kcal/mol
same,dH,"streptavidin (SAV) [11]; ligand not printed in the sheet (biotin binding), ref Green",-23 kcal/mol
